Entries after “also recorded” stand apart in the source; their conditions may differ.
How the values were obtained:
[1] = Rat laser glaucoma model: weight of animals; format: in vivo, Wistar rats
[2] = 14-day subcutaneous rat study: mortality, clinical signs, body weight, feed consumption; format: in vivo, Sprague Dawley rats; conditions: s.c. daily 14 days
Procedure: Sprague Dawley rats were administered the CGRP antagonist daily via the subcutaneous route for a period of 14 days, resulting in the surprising effect of LDL lowering. Fifty six animals (36 males and 20 females) were distributed into four groups (consisting each of 5 males and 5 females per group and 4 extra males each for testing group as backups). The groups were as follows: G1—Control, G2—Low dose—100 mcg/kg, G3—Intermediate dose—300 mcg/kg, G4—High dose—1000 mcg/kg.
Rats from the treatment groups were dosed subcutaneously with CGRP receptor antagonists (SEQ ID NO: 1) reconstituted with normal saline at different dose levels per treatment group for 14 days. Control animals were dosed with the vehicle alone.
The acclimatization period was, at a minimum, 7 days. For the randomization, animals were selected and grouped based on stratified randomization by using body weights one day before dosing (day 0) using an Excel program. The route of administration of the antagonist was by a subcutaneous method. The frequency of the administration was daily for fourteen days. The dose volume was set at 5 ml/kg of body weight. The duration of the treatment was fourteen days with administration occurring approximately at the same time each day.
The following observations were recorded: • 1. […] Body Weight • Body weight was recorded on day 1, 7, 11 and 15. • 3. Feed Consumption • Feed consumption was recorded daily and reported weekly. • 4. Blood Collection and Laboratory Investigations • Blood samples for were collected from all animals on day 15. The animals were fasted overnight before blood sampling but allowed access to water ad libitum for hematology and biochemistry. Blood samples were drawn from the retro-orbital plexus using a micro-hematocrit heparinized glass capillary tube. Blood samples were centrifuged (3500 rpm) and after centrifugation plasma was separated for further analysis.

C-nociceptors = test: Spontaneous activity in C-nociceptors, rat crush-induced sciatic neuropathy (microneurography); conditions: 25 μg/Kg i.p.; for spontaneous activity in C-fibers (action potentials recorded in the sciatic nerve): after administration, FIG. 1
Procedure: To investigate the effects of a CGRP receptor antagonist on pathological spontaneous activity in C-nociceptors the following experiments were performed on Sprague-Dawly rats. Crush-inducing sciatic neuropathy was produced in 12 male Sprague-Dawley rats. Spontaneous activity in injured C-nociceptors was then detected with microneurography and the response to CGRP receptor antagonist was assessed under unblind conditions. This study aimed to assess the effect of the CGRP receptor antagonist, on electrophysiological measures of spontaneous activity in subpopulations of injured C-nociceptors in a model of neuropathic pain, and to investigate the effects of the CGRP receptor antagonist on pathological spontaneous activity in peripheral C-nociceptors.
All surgical procedures were performed under general anesthesia (ketamine 90 mg/kg+xylazine 10 mg/kg i.p. (intraperitoneal)). The sciatic nerve was exposed at mid-thigh level. A standardized injury was produced by crushing the nerve three times in succession with a very fine point forcep at a constant point, 90 mm from the tip of the third digit. The wound was then sutured by layers and disinfected with povidone iodine. The animals received an analgesic subcutaneous (s.c). dose of buprenorphine and were maintained in a warm environment until full recovery from the anesthetic, and were allowed to recover from the nerve injury for a minimum of 70 days.
CGRP receptor antagonist (SEQ ID NO: 1) was dissolved according to manufacturer's instructions in saline solution, at a final concentration of 25 μg/Kg. Volumes of the intraperitoneal (i.p.) injected bolus ranged from 0.48 to 0.58 ml.
Animals weighing 478±36 g (mean±SD) on the day of the recording were anesthetized with ketamine (90 mg/Kg) and xylazine (10 mg/Kg) injected i.p (intraperitoneal). Repeated administrations of one-half of the initial dose were performed as required to maintain the level of anesthesia, usually every hour.
Recordings of the sciatic nerve electrical activity were obtained inserting a tungsten microelectrode (FHC, Bowdoinham, ME, USA, nominal impedance 50-100KΩ, shaft Ø 175 μm (Ø=diameter)) into the sciatic nerve trunk with the aid of a micromanipulator. The recording electrode was carefully advanced into the nerve with the micromanipulator until characteristic neural audio signal could be heard. The method follows the same principles of the microneurographic technique employed in human patients.
The neural signals were first amplified with an isolated, high input impedance amplifier, band-pass filtered (maximum range 50-5000 Hz) and passed through a noise eliminator. The signal was then fed to an AM10 audio-monitor with noise clipper (Grass Technologies, Warwick, RI, USA) and to computers running separate software for collecting spontaneous and electrically evoked activity. Electrical stimuli were delivered to the cutaneous receptive field of the units by means of a constant current stimulator (DS7A, Digitimer, Welwyn Garden City, Hertfordshire, UK).
Electrical stimuli were triggered and the responses to electrical stimulation recorded and analyzed with a PC and PCI-6221M data acquisition board (National Instruments, […], USA) running QTRAC software (©Institute of Neurology, London, UK). Spontaneous activity was digitized at 20 kHz and recorded continuously on one of the computers running LabChart software (PowerLab Systems, ADInstruments Ltd., Bella Vista, New South Wales, Australia). Analysis was performed with software written by Neuroscience Technologies, Science Park of Barcelona, Spain, to detect and quantify spontaneous activity.
Trigger pulses were delivered to the stimulator at different frequencies necessary to induce ADS of conduction velocity of the recorded C-fibers. The digitized responses were stored on computer as raw data for off-line analysis.

[3] = 10 min before vs 10 min after administration, paired t-test, listed as CGRP receptor antagonist

NH2-Ala-Cys-Asp-Thr-Ala-Ala-Cys-Val-Leu-Gly-Arg-Leu-Ser-Gln-Glu-Leu-His-Arg-Leu-Gln-Thr-Tyr-Pro-Arg-Thr-Asn-Val-Gly-Ser-Lys-Ala-Phe-NH2 (H-ACDTAACVLGRLSQELHRLQTYPRTNVGSKAF-NH2; ends and bridges not checked) [SEQ ID NO: 1]
difference in the weight between the groups ([1]; Mann-Whitney U test, P>0.05): no significant difference | Baseline weight ([1]; mean ± SD, baseline): 538 ± 21 g | Weight prior to sacrifice ([1]; mean ± SD, end of two-week study): 524 ± 27 g | food consumption ([2]; all study groups): normal | body weight among the groups [2]: no statistically significant difference | mortality or morbidity ([2]; 100, 300, 1000 mcg/kg): no mortality or morbidity | clinical signs ([2]; high dose = 1000 mcg/kg, all animals normalized from day 12): no clinical signs were observed during the entire study period except for four males from the high dose group that showed lethargy on day 10 | SLI/10 min (Significant Latency Increase) (C-nociceptors; [3]): did not reveal a statistically significant effect; also recorded: No significant differences were observed | TI (%) (Total Increase) (C-nociceptors; [3]): did not reveal a statistically significant effect; also recorded: No significant differences were observed | spontaneous activity in C-fibers (action potentials recorded in the sciatic nerve) (C-nociceptors; rat crush sciatic neuropathy): preventing further spontaneous activity in the C-fibers | spontaneous activity in C-fibers (action potentials recorded in the sciatic nerve) (C-nociceptors; rat crush sciatic neuropathy, listed as CGRP receptor antagonist): virtually no excitation observed | spontaneous activity at long intervals after the administration (C-nociceptors; rat crush sciatic neuropathy, up to 90 min): less spontaneous activity | Morbidity and mortality (C-nociceptors; rats, whole procedure): in good condition during the whole procedure

— patent publication US12103951B2, “Use of CGRP receptor antagonists in neuroprotection and neurological disorders” (priority 2016, dated 2024)
